# Changes are numbered by the printed parent chain.
# T1: human CTLA4-Fc (Fitzgerald #30R-CD152) (human, UniProt P16410 38-152, biotinylated in the inhibition ELISAs (sites not given))
# T1 construct: Bought reagent; Used plain (coated or immobilised) and biotinylated (in solution); also called biotinylated-CTLA4; human CTLA-4 (Fitzgerald); not shown: Fc of the bought fusion protein
# T1 sequence: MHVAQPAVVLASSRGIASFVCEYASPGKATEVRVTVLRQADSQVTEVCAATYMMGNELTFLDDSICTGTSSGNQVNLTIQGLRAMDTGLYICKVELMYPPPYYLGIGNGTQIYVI
# B1: CD86 mutant clone 904 fused to γ2/γ4 Fc (Fc fusion)
# chain: LKIQAYFNETADLPCQFANSQNQSLSELIVFWQDQENLVLNEVYLGKERFDAVDSKYMGRTSFDSDSWTLRLHNLQIKDKGIYQCIIHHKKPSGMVKIHQMDSELSVLA
# notes: not shown: γ2/γ4 Fc
# B2: CD86 mutant clone 907 fused to γ2/γ4 Fc (Fc fusion)
# chain: B1 chain with I29V, R49K, A52S, D54H, I82L, S93T, V96I, Q100E, D102N
# notes: not shown: γ2/γ4 Fc
# B3: CD86 mutant clone 1040 expressed as a gamma2/gamma4 fusion (Fc fusion)
# chain: APLKIQAYFNETADLPCQFANSQNLSLSELVVFWQDQENLVLNEVYLGKERFDSVDSKYMGRTSFDSDSWTLRLHNLQIKDKGRYQCIIHHKKPTGMINIHQMNSELSVLA
# notes: Purified on protein A; not shown: gamma2/gamma4 Fc
# B4: CD86 mutant clone 1042 expressed as a gamma2/gamma4 fusion (Fc fusion)
# chain: B3 chain with R51I, D56S, R84I, T95S, I98V, N99K, N104D
# notes: as for B3
# Legend:
# [1] = target: T1, human CTLA4-Fc (Fitzgerald #30R-CD152); test: SPR (Biacore); ratio [Kd for CD28] / [Kd for CTLA-4] compared with wild type
# Method: (§1) The phage clones selected from Example 1 were re-cloned according to standard protocols into a fusion protein-format, with each clone fused to γ2/γ4 Fc. The fusion proteins were expressed in HEK293 cells. Supernatants culure of the cells were collected and the expressed fusion proteins were assayed using both ELISA and Biacore™ according to the methods set out below.
# Either CTLA4-Fc (Fitzgerald #30R-CD152) or CD28-Fc (R&D systems 342-CD) was immobilized to the Biacore™ senshorship, CM5, using conventional amine coupling. The CD86 mutant molecules and controls (serially diluted ½ 100-1.5 nM) were analyzed for binding in HBs-P (GE, BR-1003-69) at a flow rate […]. The association was followed for 3 minutes and the dissociation for 10 minutes. Regeneration was performed twice using 5 mM NaOH for 30 seconds. The kinetic parameters and the affinity constants were calculated using BIAevaluation 4.1 software.
# [2] = target: T1, human CTLA4-Fc (Fitzgerald #30R-CD152); test: ELISA; ratio [EC50 for CD28] / [EC50 for CTLA-4] compared with wild type
# Method: as §1
# (§2) 96-well flat bottom high binding plates (Greiner #655074) were coated with either CTLA4-Fc (Fitzgerald #30R-CD152) or CD28-Fc (R&D systems 342-CD) by incubating overnight at 4° C. The plates were washed (Wash buffer: PBS+0.05% Tween 20 (PBST) Medicago #09-9410-100) and then blocked in PBST+3% BSA (Merck, #1.12018.0100). The plates were washed again and sample or controls (serially diluted ⅕ from 200-0.001 μg/ml) were added to the wells. The samples were incubated for 1 h at room temperature and then washed. Detection antibody, goat-anti-human IgG Fcγ-HRP (Jackson, #109-035-098) was added and the plates were subsequently developed using SuperSignal Pico Chemiluminescent substrate (Thermo #37069) and detected with an Envision reader (Perkin Elmer). EC50 values were calculated for both CTLA4 and CD28. The binding ratio (EC50 binding ratio=[EC50 for CD28]÷[EC50 for CTLA-4]) was calculated for each polypeptide and is shown in Table 4.
# [3] = target: T1, human CTLA4-Fc (Fitzgerald #30R-CD152); test: binding ELISA: CTLA4-Fc coated on the plate, sample serially diluted, detection with goat anti-human IgG Fcγ-HRP, chemiluminescence, data normalised to %
# Method: as §2, with “Similar to the protocol described in Example 2, 96-well” for “96-well”, “(kindly provided by Simon Davis, Oxford University)” for “(R&D systems 342-CD)”, “⅓” for “⅕”, “50 000-0001 nM)” for “200-0.001 μg/ml)”, “Elmer).” for “Elmer). EC50 values were calculated for both CTLA4 and CD28. The binding ratio (EC50 binding ratio=[EC50 for CD28]÷[EC50 for CTLA-4]) was calculated for each polypeptide and is shown in Table 4.”
# (§3) Binding to CD28 was too low for detection by this assay (data not shown).
# [4] = target: T1, human CTLA4-Fc (Fitzgerald #30R-CD152); test: binding ELISA on coated CTLA4-Fc; against wild type and H79A; upper end tied to 1040 by Table 7
# Method: as §2, with “Similar to the protocol described in Example 2, 96-well” for “96-well”, “(kindly provided by Simon Davis, Oxford University)” for “(R&D systems 342-CD)”, “⅓” for “⅕”, “50 000-0001 nM)” for “200-0.001 μg/ml)”, “Elmer).” for “Elmer). EC50 values were calculated for both CTLA4 and CD28. The binding ratio (EC50 binding ratio=[EC50 for CD28]÷[EC50 for CTLA-4]) was calculated for each polypeptide and is shown in Table 4.”
# as §3
# [5] = target: T1, human CTLA4-Fc (Fitzgerald #30R-CD152); test: binding ELISA on coated CTLA4-Fc; against wild type and H79A; lower end tied to 1042 by Table 7
# Method: as §2, with “Similar to the protocol described in Example 2, 96-well” for “96-well”, “(kindly provided by Simon Davis, Oxford University)” for “(R&D systems 342-CD)”, “⅓” for “⅕”, “50 000-0001 nM)” for “200-0.001 μg/ml)”, “Elmer).” for “Elmer). EC50 values were calculated for both CTLA4 and CD28. The binding ratio (EC50 binding ratio=[EC50 for CD28]÷[EC50 for CTLA-4]) was calculated for each polypeptide and is shown in Table 4.”
# as §3
binder,measurement,setting,value
B1,fold of Kd binding ratio over wild type CD86,[1],> 4 times
B2,fold of EC50 binding ratio over wild-type CD86,[2],~10 times
B3,EC50 (read off the curve),[3],~8 ng/mL
same,fold improvement of EC50,[4],2 to 67 fold
B4,fold improvement of EC50,[5],2 to 67 fold

# From patent US20160304580A1 (ALLIGATOR BIOSCIENCE, published 2016)
